Target: HIF prolyl-4-hydroxylase 2 (PHD2), residues 178-426 (human, UniProt Q9GZT9 178-426)
Assay: cell-based or functional assay

Chain of HIF prolyl-4-hydroxylase 2 (PHD2), residues 178-426 (Q9GZT9 178-426): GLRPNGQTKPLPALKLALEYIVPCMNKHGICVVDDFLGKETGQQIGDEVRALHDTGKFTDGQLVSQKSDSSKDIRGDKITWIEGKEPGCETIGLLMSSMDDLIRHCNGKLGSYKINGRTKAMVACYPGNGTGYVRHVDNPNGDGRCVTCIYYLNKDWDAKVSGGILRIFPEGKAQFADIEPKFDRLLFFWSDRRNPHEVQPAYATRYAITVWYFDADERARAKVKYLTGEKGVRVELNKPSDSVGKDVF

B1: CODD peptide, HIF-1α 556-574 (M561A, M568A) (peptide)
peptide: DLDLEALAPYIPADDDFQL
  kcat/KM of CODD hydroxylation by PHD2 (steady-state, MALDI-TOF), 0 mM NaCl: 16700 M⁻¹ s⁻¹
  kcat/KM of CODD hydroxylation by PHD2 (steady-state, MALDI-TOF), + 100 mM NaCl: 5000 M⁻¹ s⁻¹

B2: NODD peptide, HIF-1α 395-414 (F413Y) (peptide)
peptide: DALTLLAPAAGDTIISLDYG
  kcat/KM of NODD hydroxylation by PHD2 (steady-state, MALDI-TOF), 0 NaCl: 667 M⁻¹ s⁻¹
  kcat/KM of NODD hydroxylation by PHD2 (steady-state, MALDI-TOF), + 100 mM NaCl: 833 M⁻¹ s⁻¹
